Source: publication PMC12446635

Key:
[1] = target: human plasma glycoproteins; experiment: far-Western blot densitometry (ImageJ); conditions: human plasma; parent: est. 4.0; read off a plot
rat plasma glycoproteins = experiment: far-Western blot densitometry (ImageJ); conditions: rat plasma; parent: est. 13; read off a plot
[2] = target: biotinylated Neu5Gcα2-3Gal disaccharide; experiment: ELISA; conditions: 500 nM immobilized GST-SLBR, read off a plot
[3] = target: biotinylated Neu5Acα2-3Gal disaccharide; experiment: ELISA; conditions: 500 nM immobilized GST-SLBR, read off a plot
[4] = target: human plasma glycoproteins; experiment: far-Western, overlay or dot blot; human or rat plasma diluted 1:10, boiled with LDS sample buffer and 50 mM DTT, separated on 3 to 8% polyacrylamide gradient gels, transferred to BioTraceNT; GST-SLBR 5 nM in DPBS with 1x Blocking Reagent, 90 min, room temperature; detected with anti-GST; in duplicate
[5] = 1 μg/ml biotinylated disaccharide, parent: est. 0.18
[6] = highest ligand concentration point, about 5 μg/ml biotinylated disaccharide, parent: est. 0.41
[7] = 1 μg/ml biotinylated disaccharide, parent: est. 0.16
[8] = highest ligand concentration point, about 5 μg/ml biotinylated disaccharide, parent: est. 0.31

| Substance | response (Signal Intensity (x1000)) [1] | response (Signal Intensity (x1000)) (rat plasma glycoproteins) | response [2, 5] [A450] | response [2, 6] [A450] | response [3, 7] [A450] | response [3, 8] [A450] | fold decrease in total binding against wild-type SLBRHsa [4] [fold] |
| --- | --- | --- | --- | --- | --- | --- | --- |
| GST-tagged SLBR_(SrpA) (Siglec-like binding region of the serine-rich repeat adhesin SrpA, Streptococcus sanguinis strain SK36), wild type (from UniProt A3CM52) Y368F | 0.2 | 15 | 0.62 | 0.99 | 0.26 | 0.54 | – |
| GST-tagged SLBR_(SrpA) (Siglec-like binding region of the serine-rich repeat adhesin SrpA, Streptococcus sanguinis strain SK36), wild type (from UniProt A3CM52) Y368V | 0 | 18 | 0.62 | 0.98 | 0.12 | 0.21 | – |
| GST-tagged SLBR_(SrpA) (Siglec-like binding region of the serine-rich repeat adhesin SrpA, Streptococcus sanguinis strain SK36), wild type (from UniProt A3CM52) Y368I | 0 | 19 | 0.81 | 1.1 | 0.16 | 0.32 | – |
| GST-tagged SLBRHsa V370F (domain or fragment) | – | – | – | – | – | – | 3 |
